Reference: article PMC6880778

B1: PfMSP10 region 1 (R1, D29-N188) (domain or fragment)
chain: DDIKNTSQKKITYDKYNKNKENMNNEKNDNKDNKDNIYNDNINNDNINNDNINNEDEYKFLSMKHYKDSLSNKLNNENDHMNYLIRKRKDNTQGSQHFNENIENNENVENNENIENNENNENIENIENNENNENNENIENNENNENNENSSIMNSESYNN
B2: recombinant ecto-PfMSP10 (D29-Q507) (domain or fragment)
chain: DDIKNTSQKKITYDKYNKNKENMNNEKNDNKDNKDNIYNDNINNDNINNDNINNEDEYKFLSMKHYKDSLSNKLNNENDHMNYLIRKRKDNTQGSQHFNENIENNENVENNENIENNENNENIENIENNENNENNENIENNENNENNENSSIMNSESYNNIINSNEHNEEQIKKKEEDLIEAFFPFILKKLDNESLSLDNKYDDYYNLPNDHNDTHKENSSDHNLLGYKLGNNLKSYLIEENDVSQKKTDDINESASSDSENIQEILSTDSNTSHLKERKNQKAPPGEHKPEVKNALLNSQVASPKGEDEKKSQPQHPLVNSGDQLQHPKEIDENAEKIRRTLLKESRDIKNTTAIIDETVYKFEQLIMKGRYYATAVRNFVIFKVNYICEYSKCGPNSRCYIVEKDKEQCRCRPNYIVDMSVNYFKCIPMKDMNCSKNNGGCDVNAECTIVEGAVKCQCSHLYFGDGVFCVKNSQTKQ

Columns and labels:
[1] = molecular target: ecto-PfGAMA (N25-G715) (P. falciparum); assay: SPR; Biacore X100, CM5 chip; PfGAMA as ligand, analyte in single-cycle kinetics at 0.16, 0.8, 4, 20 and 100 nM; global fit to a 1:1 binding model
[2] = molecular target: recombinant ecto-PfGAMA (N25-G715) (P. falciparum)
[3] = molecular target: recombinant ecto-PfGAMA (N25-G715) (P. falciparum); assay: SPR; Biacore X100, CM5 chip; recombinant PfGAMA as ligand, PfMSP10 protein as analyte; single-cycle kinetics at 0.16, 0.8, 4, 20 and 100 nM; global fitting in a 1:1 binding model

| Molecule | Kd [1] | koff [1] | kon [1] | GIA activity (growth inhibition of cultured P. falciparum parasites) of 20 mg/ml rabbit antibodies raised against PfMSP10 R1 [2] | Kd [3] |
| --- | --- | --- | --- | --- | --- |
| ecto-PfMSP10 (D29-Q507) (domain or fragment) | 99.7 nM | 0.0015 s⁻¹ | 15000 M⁻¹ s⁻¹ | – | – |
| PfMSP10 R1 (D29-N188) (domain or fragment) | 648 nM | 0.000355 s⁻¹ | 548 M⁻¹ s⁻¹ | – | – |
| B1 | – | – | – | 11% | 650 nM |
| B2 | – | – | – | – | 100 nM |
